# Experimental data published in a protein production outcome set (Wang et al. 2014).
# Experiment: label from the status in PepcDB records
row,Sequence,protein production
1,MRILFVGPPLYGLLYPVLSLAQAFRVNGHEVLIASGGKFAQKAAEAGLVVFDAAPGFDSEAGYRRQEALRKENNIGTKMGNFSFFSEEMTDPLVAFAGQWRPDLIVYPPLGVVGPLIAAKYDIPVVMQTVGFGHTPWHIKGVTKSLSNAYRRHGVSAPPRDLAWIDVTPPSMSILQNDGEPVISMQYVPYNGGAVWEEWWERTPDRKRLLVSLGTVKPMVDGLDLISWVMDSAGEVDAEIILHLPANARSDLRSLPPNVRLVDWLPMGVFLNGADGFIHHGGAGNTLTALHAGIPQIVFGQGADRPVNARAVVERGCGIIPGKSGLTSSMINTFLGNRALREASQEVAAEMAAQPCPTEVAKKLIAMLQHG,failed
2,MRILLATDGSPQARGAEALAEWLAYKLSAPLTVLFVVDTRLARIPELLDFGALTVPVPVLRTELERALALRGEAVLERVRQSALAAGVAVEAVLEEGVPHEAILRRARAADLLVLGRSGEAHGDGFGGLGSTADRVLRASPVPVLLAPGEPVELEGALLGYDASESAVRALHALAPLARALGLGVRVVSVHEDPARAEAWALEAEAYLRDHGVEASALVLGGDAADHLLRLQGPGDLLALGAPVRRLVFGSTAERVIRNAQGPVLTAR,failed
3,MRILSIIRIIGILVMCFSGTMLVPAFVALIYGDGGGKAFMQAFMLSLIAGTLLWWPCHHHKQELRSRDGFLIVVAFWLVLGSLATLPLLLFDSPHLTIASAVFEAFSGLTTTGATVMTGLDNLPKSILFYRQFLQWLGGMGIIVLAVAIIPLLGIGGTQLYRAESSGPLKDQKSLPKISEVAKALWIIYASLTVLCAIAYWLSGMNLFDAIGHSFSTISNGGFSTHDASIGYFNQASIYWVTTIFMLIGGVNFSLHISAFLALGKRNIWRNYWKDPEFRFFLTMQIIFIGIVSLSLYGYGLVSDINEAVTKGALQLTSMSMTAGYTIFDIDNLPPFIGLLLVISAVIGGCGGSTTGGLKAIRTLILWKQIDRELHSLIHPNLVQPIRIGKNRLAPRMIESIWAFFIIFILVYWGCVFAVILCGMNTFDAMGAVFATLTNAGPGLGFIHESFIGVPESAKLVFSFAMICGRLEMFSLIVLFIPSYWKK,failed
4,MRISAKKPRPRPIFALCAPYPEAQPQEAEVRVRTSILAFVLAAVSTIAGAQDSGLTSLETTDAGRSWLAVGRLDIDGTGFCTGALIAPDLVLTAAHCLYDKTTGQRIDPARIEFLAGWRRGRASAYRRVARAVHHPDYLYEGAVTAERVRNDLALLKLSQPIRNTTVVPFETGNRPMRGDAVQVVSYAHDRAEAPSLQEACAVMARQQGVLVMSCDVDFGASGSPVFSLSDSTPRIVSVVSAKAEVDGARVALGTSLDDTLTFLMGELDSHKRAEIPTVPRVNRLSASGQGSASGAKFVRP,failed
5,MRITVMTAGEQIITLDVDSQETVENVKALLEVESNVPIQQQQLLYNGNEMGNSDKLSALGVKDDDLLMMMVSNASSGSATSAAGNDLGMNPDGSALNPAAFQQHIRGDSNLMGQLFQNDPELAQVISGSDLNKLQDVLRARHRQRSVLQRQKEEELALLYADPFDVEAQRKIEAAIRQKGIDENWEAALEHNPEGFARVIMLYVDMEVNGVPLKAFVDSGAQSTIISKSCAERCGLLRLMDQRYKGIAHGVGQTEILGRIHVAPIKIGNNFYPCSFVVLDSPNMEFLFGLDMLRKHQCTIDLKENVMTVGGGEVSVPFLQEKDIPSRFLDEERVPNDASSSGATVPSGFTEKKNNTVANPTSQQPKRQNTSEGPEFEAKIAKLVELGFSRDSVIQALKLFEGNEEQAAGFLFGG,failed
6,MRIYLFLNKNYKIFILFLILILNSKLAYSQRLIRIGKEEMKNKNYIQAIETLSDAIKKYPKVQLGYYFLSIAYRENNQLTEAEGALLDGIAVGGEIDYILYYELGNIMFNRGEGYYPLAIKYYSNSIKSRPNYDSALLNRANAYVQQGKITSKEKEYQKAWDSYTMAIHDYSQFITLRSKTEKKDSILLIISYLRNEKINLEQLDKSLKGRTEHIVYAKEDKNQILKDSFKDNLETNSLIELEKLNWQEELYIDE,failed
7,MRIYLIGFMCSGKSTVGSLLSRSLNIPFYDVDEEVQKREGLSIPQIFEKKGEAYFRKLEFEVLKDLSEKENVVISTGGGLGANEEALNFMKSRGTTVFIDIPFEVFLERCKDSKERPLLKRPLDEIKNLFEERRKIYSKADIKVKGEKPPEEVVKEILLSLEGNALGG,not failed
8,MRKDETSNTSPDISAAQPASALRYHLRPPRRNDGAAIHQLVSECPPLDLNSLYAYLLLCEHHAHTCVVAESPGGRIDGFVSAYLLPTRPDVLFVWQVAVHSRARGHRLGRAMLGHILERQECRHVRHLETTVGPDNQASRRTFAGLAGERGAHVSEQPFFDRQAFGGADHDDEMLLRIGPFTHPPH,failed
9,MRKELCRNFQRGSCRYGENCRFLHPQQAKPNNPFGFGTQNQQQQQQQQQQNSSNPFGFGVQSGGSSRPNQFQNTWSRTASTPTGGGAAASTQQTGKQTQPADHKCTDPAACKRVMQDDFKNERPMWKLTCYGHWKYFPCDVTGDISYEELRAVAYEEAKRGIPLQSIVERERNLQNSKIAEFENFLRNPYKGSVTANQSPFAATTPSIFPQSSQINSPSPAFSGFNQQTAFSNTNAGGLSSSGPPNAFASFNQQTTFPNTNAGGVSSSGPPNPFASFTQQSNNQQTAFSNTNAGGLSSSGPPNAFASFNKQPNAFSVNTPQPVPSGPSGFQTNPSTTFKPASFGPGPGFATTPQNNNIFGQSTPTPATNTSQNNQTAFNFNVPVASFTAPAINTTNTSSGTELQIGGDPVDSSIWLKEKWNPGEIPEQAPPDAFV,failed
10,MRKFIISFCCYVFFIFTLAAQDKAPHYTVIVSLDAFRWDYPAMYDTPNLNQMAREGVKATMLPSYPASTFPNHYTLATGLVPDHNGIINNTFWDVKRRRQYSMGDPATRNNPDYYLGEPIWITAQKQGVKTGNVYWVGSDIAIKGGYPTYYREYAEKPRLTFEQRVDSTIALLEKPEAERPRLVMLYFEEPDGVTHHHGPRSVEAAAIIHRMDSLVGMLRQGIASLPFGKDVNLIVTADHGMTEISDDRVVDMNKYLRPEWCEAVDGRTPTSIFTKPEYRDSVYNALKDVPHIHVWKKEEIPAELNYGSSDRIGDIVVAPELGWQFTDVPRALKGAHGYFPQSPDMQVMFRACGPDFKAGYESKGFVNVDIYPLLAHLLKITPEKTDGQFERIKDILKDVSFLEHHHHHH,failed
11,MRKFILYWALYGLIELIMYVWLFQVIGFWPLLFIQIASSAFGVFIFKRLGGNLFRNLRDGRTVAPYLLDSLCFFIAGFLLIIPGVITTILGLLIFIPFSRKLLKPKLTKWLGNQKKHTQYYYFDM,failed
12,MRKGLIRNGSYSILLVIYRWFCWAIVLIGIIPVNGVISLAYAATPADWNKGAYAYSAEQTPLSAILADFANSHGVDLVLGNIADNEVTAKIRADNPTLFLDRLALEHRFQWFVYNNALYVSPQDEQASVRLEISPDAAPDIKQALSGIGLIDSRFGWGELPEEGVVLVTGPKAYIDLIRNFSQQREKQDERRKVMIFPLRYASVSDRTLQYRDQKITIPGVATILNELMDGQRAAPAGASGPMPVQPDTGMEAMRDSTRSLMTRLATRTSPGRSGEASSRVTLSGKISADVRNNALLIRDDEKRRAEYQQLVEHIDVPQNLVNIDAIILDVDRTALSRLEANWQAQLGNVSAGSTMMMGRSTLFVSDFKRFFADIQALEGEGTASIVANPSVLTLENQPAIVDFSRTAFITATGERVADIQPVTAGTSLQVTPRVIGEGAQRSIQLVIDIEDGQVETGREGEASGVKRGTVSTQALIGENRALVLGGFHVEESGDRDRRIPILGDIPLLGKLFTSTRHEVSRRERLFILTPHLVGDQTDPTRYVSSVNRQQLNGAMNRVAQRNGKTDLYSLIEGAFRDLASRQLPAGFQADSKGARLGEVCRSQSGLIYDSSRYQWYGNGQVRLSVGVVRNGGTQPQRFDEAACASSRTLAVAVWPKTTLAPGESSEVFLALQPALTAQPTRRNVLISN,failed
13,MRKISIVIPVYNTEKYLKLSVDSVLSQSYQDWELILVDDGSKDGSGAICDKYASEDSRIKVYHTVNQGVTAARGYGVEQSTGEWICFLDADDTLADDALQVMLGKSADCDIVIGNKRIVSGNDVTEEWMNQDDRQLQAVEFLDGLIRNKISQYITGRIFRRILFDNGTICIPRELIMAEDFIMNVQLGNKAKKIAVIRDMVYGYHVYGESVSHTFRTNLEYESRFCDCLFSALKTGGYYEEVKEAFTFQKVRALKSAFMAQQGRVNLRHPFLQEVRKEAKSIGLSRGWKLFLYLLPLKYIGYIFFRSLNKLEHHHHHH,not failed
14,MRKITQAISAVCLLFALNSSAVALASSPSPLNPGTNVARLAEQAPIHWVSVAQIENSLAGRPPMAVGFDIDDTVLFSSPGFWRGKKNFSPESEDYLKNPVFWEKMNNGWDEFSIPKEVARQLIDMHVRRGDAIFFVTGRSPTKTETVSKTLADNFHIPATSMNPVIFAGDKPGQNTKSQWLQDKNIRIFYGDSDNDITAARDVGARGIRILRASNSTYKPLPQAGAFGEEVIVNSEY,failed
15,MRKKGNKLIEFVSKIMALVMAVTLLSSLPVQNVLANDSKETKGEEYEIYPIPQSIKYDNGTVTLGTDANVVFEEGIDEATKNRLLEVLSIKGINYEESNEIKEDKTNFLIGINNSEGVVDKYFTDNNLANDSHFENHDAHVVSVKGNVIAVLGKNTDSAFYGITSLKAIFNQLEGNELKELLIEDYSDGQWRGFIEGYYGIPWSNENRKDLMKFGGDFKMNSYIFAPKDDQYHSLKWREPYPAEKLAEIKEMVDVGIATKNKFIWTIHPFLKDGMNFGSEESYKADLEKIIAKFEQLYSVGVRQFGVLADDAEGEANNQVKLMEDLEKWRLQKGDVYEFIFVPKVYTKESAGGDVNNEYLKTIGTMPETIDIMWTGDVILGYVTQETFEFFEEAVGRQAFMWLNWPVNDINNKRLLMGKGEMLDPTVTNFKGIVTNPMQEAQASKVALFAIADYGWNRADFDMDKSWKDSFKYIEPDASEELYTFAKHMSDPAPNWHGLSLEESEELRPVIEEFTRKLWEKESVLDYSKVILDEYQEILDATNNFATKSKNELLKSEIKGWVDSLRDLAESTIAYINSAVAFEKGNYEEAMKYYVLGEDEYTASRSHRTPVINGQSRPEPGTRHLIPFIKDLSKIIGDNIDQVINPDTTKLTLRPYTNMSPLYWGHVQNIADGDNTRYSCMWIRNSAKEGDYVAVELNEVTKVNSITFEQGQDEGDAFNYGKFQYSMDGENWIDVDGVDYGPKMHKIVVEGLDITAKYLRFIPTKEILNNWIAVREFSVNKKDENNMKVNAYTNVEALAKNEVSISEEKATLSDLNDVTLSKGEYVGIKLNKLREVTNIVSDFTNNDNLTLETSINGVEWVEAKTLSETINARYVRIINNTEKDVTFNLNKLEAEYSNNDVNFDIRPTAEAKFEPKNLIDGKLNTAFKPLESAPKSGQLTYRISDKTDIKKFTIVQNPNTISNAIVSVRNENGWKEVGSLGKSFNEFNTEDFENVFEIKVEWDGFAPTIYEIGLSTIKEEVQVDKSKLEEAIKEVEKLKEEDYTKDSWSNLIEKLNLAKEVLSKEDATQDEVDNAIKALNEAISGLVKKDETEGPVDPEKPVDPENPDNTEKPENPEGTDKPQTPDKPEGNLPNTGGASSSIFLQLGVVMMASGAFVLKRKKR,failed
16,MRKLAAFLGLVGLLSLGLAQSAQEILDRVEKNLSTPWQATVQGRIQGPGGEEELLARVYALPQARLFRVEFLKPGSLEGNFTVITEKEVWNYLYLTNQLVISPREKAKIQGLGFAPQGLGDLKALSEQVDLRLEGEVRLPEGMAWKLVGRSKENQGFAAMELYILKADPRPLRFVFLDEKGKVLADLKVVEFKRTNLTEAQLKRYPKDAQVVRR,not failed
